Measured values as given in IntAct's records for PubMed 20723757.

B1: Monopolin complex subunit CSM1 (Saccharomyces cerevisiae), P25651 (parent)
chain: MDPLTVYKNSVKQQIDSADLLVANLVNENFVLSEKLDTKATEIKQLQKQIDSLNAQVKELKTQTSQQAENSEVIKDLYEYLCNVRVHKSYEDDSGLWFDISQGTHSGGSSDDYSIMDYKLGFVKGQAQVTEVIYAPVLKQRSTEELYSLQSKLPEYLFETLSFPLSSLNQFYNKIAKSLNKKREKKDETE
partner: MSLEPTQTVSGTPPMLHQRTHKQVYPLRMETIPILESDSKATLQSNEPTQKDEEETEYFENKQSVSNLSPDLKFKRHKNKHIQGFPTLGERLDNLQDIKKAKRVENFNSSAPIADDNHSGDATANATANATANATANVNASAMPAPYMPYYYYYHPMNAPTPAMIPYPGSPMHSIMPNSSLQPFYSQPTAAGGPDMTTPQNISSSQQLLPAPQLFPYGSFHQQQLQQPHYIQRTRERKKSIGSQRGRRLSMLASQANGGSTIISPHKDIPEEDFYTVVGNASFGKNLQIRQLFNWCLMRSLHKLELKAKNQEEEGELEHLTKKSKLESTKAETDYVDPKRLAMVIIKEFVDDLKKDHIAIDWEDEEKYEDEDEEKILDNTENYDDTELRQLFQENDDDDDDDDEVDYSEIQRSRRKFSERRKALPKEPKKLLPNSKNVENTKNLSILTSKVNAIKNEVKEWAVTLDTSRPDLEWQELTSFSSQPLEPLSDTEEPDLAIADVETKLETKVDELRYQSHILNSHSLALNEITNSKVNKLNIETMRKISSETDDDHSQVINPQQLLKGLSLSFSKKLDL
B2: Monopolin complex subunit pcs1 (Schizosaccharomyces pombe (strain ATCC 38366 / 972)), O13684 (parent)
chain: MRKNNMQTSKDSELKEQAKGKSSKLIHKLPKQRTRISQGQMHSTQDFVNNEDQDAYSVRENENELHINNSGMSELNKKLQLPNVELSTLSHTQEQEFNELNKLIRKINELQEFYLLEDLAKPVTNAGADADDTIVKDLKKELENEKKANHSLKNELLKTREQIKNYSKINILIKELFGLEVADCIEDEDGYRFNCKNTGRRGTLEYQLLLDDQNFTFTPRLNVQTDEELMKHLPDYLLEEIIFTKEQGKLFSARLMKALQD
partner: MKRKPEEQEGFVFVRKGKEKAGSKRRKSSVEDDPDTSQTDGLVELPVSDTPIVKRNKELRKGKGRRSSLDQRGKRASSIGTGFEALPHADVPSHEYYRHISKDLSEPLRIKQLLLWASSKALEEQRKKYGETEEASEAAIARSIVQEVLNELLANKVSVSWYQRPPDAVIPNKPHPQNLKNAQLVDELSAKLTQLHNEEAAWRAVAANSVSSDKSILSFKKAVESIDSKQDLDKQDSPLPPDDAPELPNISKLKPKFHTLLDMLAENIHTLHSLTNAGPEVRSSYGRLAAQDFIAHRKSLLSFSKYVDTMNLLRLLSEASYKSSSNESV
B3: Monopolin complex subunit CSM1 (Saccharomyces cerevisiae), P25651 (parent)
chain: B1 chain

Variants of: B1
Conditions: with dsn1_yeast DSN1, P40568

Effect of a mutation on the interaction, decreasing interaction:
MDPLTVYKNSVKQQIDSADLLVANLVNENFVLSEKLDTKATEIKQLQKQIDSLNAQVKELKTQTSQQAENSEVIKDLYEYLCNVRVHKSYEDDSGLWFDISQGTHSGGSSDDYSIMDYKLGFVKGQAQVTEVIYAPVLKQRSTEELYSLQSKLPEYLFETDSFPLSSLNQFYNKIAKSLNKKREKKDETE
MDPLTVYKNSVKQQIDSADLLVANLVNENFVLSEKLDTKATEIKQLQKQIDSLNAQVKELKTQTSQQAENSEVIKDLYEYLCNVRVHKSYEDDSGLWFDISQGTHSGGSSDDYSIMDYKLGFVKGQAQVTEVIYAPVLKQRSTEELYSLQSKLPEYLFETKSFPLSSLNQFYNKIAKSLNKKREKKDETE
MDPLTVYKNSVKQQIDSADLLVANLVNENFVLSEKLDTKATEIKQLQKQIDSLNAQVKELKTQTSQQAENSEVIKDLYEYLCNVRVHKSYEDDSGLWFDISQGTHSGGSSDDYSIMDYKLGFVKGQAQVTEVIYAPVLKQRSTEELYSLQSKLPEELFETLSFPLSSLNQFYNKIAKSLNKKREKKDETE

Variants of: B2
Conditions: with mis13_schpo mis13, Q9UUB5

Effect of a mutation on the interaction, decreasing interaction:
MRKNNMQTSKDSELKEQAKGKSSKLIHKLPKQRTRISQGQMHSTQDFVNNEDQDAYSVRENENELHINNSGMSELNKKLQLPNVELSTLSHTQEQEFNELNKLIRKINELQEFYLLEDLAKPVTNAGADADDTIVKDLKKELENEKKANHSLKNELLKTREQIKNYSKINILIKELFGLEVADCIEDEDGYRFNCKNTGRRGTLEYQLLLDDQNFTFTPRLNVQTDEELMKHLPDKLLEEIIFTKEQGKLFSARLMKALQD [Y236K]
MRKNNMQTSKDSELKEQAKGKSSKLIHKLPKQRTRISQGQMHSTQDFVNNEDQDAYSVRENENELHINNSGMSELNKKLQLPNVELSTLSHTQEQEFNELNKLIRKINELQEFYLLEDLAKPVTNAGADADDTIVKDLKKELENEKKANHSLKNELLKTREQIKNYSKINILIKELFGLEVADCIEDEDGYRFNCKNTGRRGTLEYQLLLDDQNFTFTPRLNVQTDEELMKHLPDALLEEIIFTKEQGKLFSARLMKALQD [Y236A]
MRKNNMQTSKDSELKEQAKGKSSKLIHKLPKQRTRISQGQMHSTQDFVNNEDQDAYSVRENENELHINNSGMSELNKKLQLPNVELSTLSHTQEQEFNELNKLIRKINELQEFYLLEDLAKPVTNAGADADDTIVKDLKKELENEKKANHSLKNELLKTREQIKNYSKINILIKELFGLEVADCIEDEDGYRFNCKNTGRRGTLEYQLLLDDQNFTFTPRLNVQTDEELMKHLPDELLEEIIFTKEQGKLFSARLMKALQD [Y236E]
MRKNNMQTSKDSELKEQAKGKSSKLIHKLPKQRTRISQGQMHSTQDFVNNEDQDAYSVRENENELHINNSGMSELNKKLQLPNVELSTLSHTQEQEFNELNKLIRKINELQEFYLLEDLAKPVTNAGADADDTIVKDLKKELENEKKANHSLKNELLKTREQIKNYSKINILIKELFGLEVADCIEDEDGYRFNCKNTGRRGTLEYQLLLDDQNFTFTPRLNVQTDEELMKHLPDYLLEEDIFTKEQGKLFSARLMKALQD [I241D]
MRKNNMQTSKDSELKEQAKGKSSKLIHKLPKQRTRISQGQMHSTQDFVNNEDQDAYSVRENENELHINNSGMSELNKKLQLPNVELSTLSHTQEQEFNELNKLIRKINELQEFYLLEDLAKPVTNAGADADDTIVKDLKKELENEKKANHSLKNELLKTREQIKNYSKINILIKELFGLEVADCIEDEDGYRFNCKNTGRRGTLEYQLLLDDQNFTFTPRLNVQTDEELMKHLPDYLLEEKIFTKEQGKLFSARLMKALQD [I241K]
MRKNNMQTSKDSELKEQAKGKSSKLIHKLPKQRTRISQGQMHSTQDFVNNEDQDAYSVRENENELHINNSGMSELNKKLQLPNVELSTLSHTQEQEFNELNKLIRKINELQEFYLLEDLAKPVTNAGADADDTIVKDLKKELENEKKANHSLKNELLKTREQIKNYSKINILIKELFGLEVADCIEDEDGYRFNCKNTGRRGTLEYQLLLDDQNFTFTPRLNVQTDEELMKHLPDYLLEEAIFTKEQGKLFSARLMKALQD [I241A]

Variants of: B3
Conditions: with cenpc_yeast MIF2, P35201
Chain of cenpc_yeast MIF2, P35201 (P35201 whole entry): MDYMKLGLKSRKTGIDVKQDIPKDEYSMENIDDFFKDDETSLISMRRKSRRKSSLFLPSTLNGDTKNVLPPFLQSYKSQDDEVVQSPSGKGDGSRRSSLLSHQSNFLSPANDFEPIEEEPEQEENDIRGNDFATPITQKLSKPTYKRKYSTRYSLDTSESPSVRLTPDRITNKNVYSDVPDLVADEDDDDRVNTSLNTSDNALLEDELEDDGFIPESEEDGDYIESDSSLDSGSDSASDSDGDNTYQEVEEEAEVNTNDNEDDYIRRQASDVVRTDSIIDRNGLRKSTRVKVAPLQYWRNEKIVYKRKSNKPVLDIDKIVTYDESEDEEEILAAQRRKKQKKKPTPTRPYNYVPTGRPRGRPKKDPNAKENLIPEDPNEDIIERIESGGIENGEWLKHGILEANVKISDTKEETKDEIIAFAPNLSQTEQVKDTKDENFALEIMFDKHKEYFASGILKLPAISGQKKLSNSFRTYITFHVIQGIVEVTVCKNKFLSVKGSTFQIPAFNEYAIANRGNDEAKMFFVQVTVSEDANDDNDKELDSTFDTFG

Effect of a mutation on the interaction, decreasing interaction:
MDPLTVYKNSVKQQIDSADLLVANLVNENFVLSEKLDTKATEIKQLQKQIDSLNAQVKELKTQTSQQAENSEVIKDLYEYLCNVRVHKSYEDDSGLWFDISQGTHSGGSSDDYSIMDYKLGFVKGQAQVTEVIYAPVLKQRSTEELYSLQSKLPEELFETLSFPLSSLNQFYNKIAKSLNKKREKKDETE
MDPLTVYKNSVKQQIDSADLLVANLVNENFVLSEKLDTKATEIKQLQKQIDSLNAQVKELKTQTSQQAENSEVIKDLYEYLCNVRVHKSYEDDSGLWFDISQGTHSGGSSDDYSIMDYKLGFVKGQAQVTEVIYAPVLKQRSTEELYSLQSKLPEYLFETKSFPLSSLNQFYNKIAKSLNKKREKKDETE
MDPLTVYKNSVKQQIDSADLLVANLVNENFVLSEKLDTKATEIKQLQKQIDSLNAQVKELKTQTSQQAENSEVIKDLYEYLCNVRVHKSYEDDSGLWFDISQGTHSGGSSDDYSIMDYKLGFVKGQAQVTEVIYAPVLKQRSTEELYSLQSKLPEYLFETDSFPLSSLNQFYNKIAKSLNKKREKKDETE
